Our source for the EGFP fluorescence lifetime values is publication PMC7094161.

Experiment [1] addresses CDC25C substrate peptide of the EKAR construct. Put plainly: FRET or BRET; FRET/FLIM: EGFP fluorescence lifetime of EKAR constructs (WW domain and peptide on one chain) in living COS cells; serum in the medium.
For experiment [2] the target is unchanged. Nature of the experiment: FRET or BRET; FRET/FLIM: EGFP fluorescence lifetime of EKAR constructs (WW domain and peptide on one chain) in fixed, mounted COS cells; serum in the medium.

Sequence of Pin1 WW domain of the EKAR construct (Q13526 5-39): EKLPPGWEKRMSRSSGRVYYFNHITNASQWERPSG

With “Pin1 WW domain of the EKAR construct (from UniProt Q13526 5-39) (domain or fragment)”, the EGFP fluorescence lifetime in experiment [1] was found to be 2.12 ns; in experiment [2] it was 1.68 ns.
